The target of the data set is full-length, relipidated human tissue factor (UniProt P13726).
full-length, relipidated human tissue factor, sequence (P13726 33-295): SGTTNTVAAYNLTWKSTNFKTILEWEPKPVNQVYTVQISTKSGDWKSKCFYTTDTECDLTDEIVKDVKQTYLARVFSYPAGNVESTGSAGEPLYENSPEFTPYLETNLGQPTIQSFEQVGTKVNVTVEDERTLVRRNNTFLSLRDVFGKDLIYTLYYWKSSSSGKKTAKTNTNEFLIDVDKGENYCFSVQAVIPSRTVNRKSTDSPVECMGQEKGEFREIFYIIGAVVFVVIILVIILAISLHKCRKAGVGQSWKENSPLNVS

On to rFVIIa(K62E)-FFR, for which the “prolongation of the clotting time of human and rabbit plasma (FIG. 6)” value was “rFVIIa(K62E)-FFR is a superior inhibitor of coagulation versus both rFVIIa(wt)-FFR and pdFVIIa-FFR at molar ratios of inhibitor:plasma FVII as low as 0.25:1 in both human and rabbit plasma”.

The values above are taken from patent US20070207960.
